# Measured values reported in doi:10.1101/2022.06.19.496723.
# Molecular target: NnlA (N-nitroglycine lyase) from Variovorax sp. strain JS1663, tag-free after TEV cleavage (Variovorax sp. strain JS1663)
# Assay: SEC
substance,measurement,value
"NnlA (N-nitroglycine lyase) from Variovorax sp. strain JS1663, tag-free after TEV cleavage (enzyme)",stoichiometry N,2
